By Kd is commonly meant a measure of binding affinity in units of concentration. Low values mean a tighter complex, high ones a looser complex. Usually koff stands for the rate constant with which the complex falls apart. A low value points to slow dissociation. One may read the kon as the rate constant with which the complex forms. High values mean fast association, low ones slow association.

Test [1] has as its target T1, Receptor Binding Domain (RBD) of SARS-CoV-2 S protein (SARS-CoV-2, UniProt P0DTC2 319-541).
Test [2] has as its target T1, Receptor Binding Domain (RBD) of …. This is another data set of the same source.

Like-named read-outs stand apart in the source and are kept apart here.

B1: sRBD7 Fab (Fab, V domains shown)
VH: EVQLVESGGGLVQPGGSLRLSCAASGFNVYSSYIHWVRQAPGKGLEWVAYISPYYGSTYYADSVKGRFTISADTSKNTAYLQMNSLRAEDTAVYYCARYWSYGGMDYWGQGTLVTVSS
VL: DIQMTQSPSSLSASVGDRVTITCRASQSVSSAVAWYQQKPGKAPKLLIYSASSLYSGVPSRFSGSRSGTDFTLTISSLQPEDFATYYCQQYYYGALITFGQGTKVEIKR
In test [1], B1 registered a Kd of 2.55 nM, a koff of 0.00029 s⁻¹ and a kon of 150000 M⁻¹ s⁻¹.

B2: sRBD1.15 Fab (Fab, V domains shown)
VH: EVQLVESGGGLVQPGGSLRLSCAASGFNFHNSYIHWVRQAPGKGLEWVASISSYSGYTYYADSVKGRFTISADTSKNTAYLQMNSLRAEDTAVYYCARSYQGQEALDYWGQGTLVTVSS
VL: DIQMTQSPSSLSASVGDRVTITCRASQSVSSAVAWYQQKPGKAPKLLIYSASSLYSGVPSRFSGSRSGTDFTLTISSLQPEDFATYYCQQYLYFSLVTFGQGTKVEIKR
Take B2: in test [2], binding was characterised by a dissociation constant (Kd) of 0.1 nM, the koff stood at 0.00011 s⁻¹ and the kon was found to be 1e+06 M⁻¹ s⁻¹.

Source of the values: patent US20240059760A1 (UNIVERSITY OF CHICAGO, published 2024).
